This assay addresses CD3 gamma subunit, transiently expressed in COS cells (human) (UniProt P09693). Description: co-IP.
Sequence of UniProt P09693 (P09693 23-182): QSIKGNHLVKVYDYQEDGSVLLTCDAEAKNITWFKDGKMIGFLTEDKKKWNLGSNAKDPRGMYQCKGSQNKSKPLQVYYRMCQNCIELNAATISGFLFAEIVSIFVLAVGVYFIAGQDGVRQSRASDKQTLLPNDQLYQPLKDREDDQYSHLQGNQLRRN

For “T cell antigen receptor (TCR) beta chain, transiently expressed in COS cells”, the percent bound to CD3 subunits was 60%.

For the origin of these results see publication PMC2119608.
